Here are results for one substance from patent US20240010733A1.

The target of the test is soluble CLEC2D antigen, ecto-domain (Q72-V191, H176C) with C-term Histidine tag (human) (UniProt Q9UHP7). The test is described as follows: flow cytometry on CLEC2D-coated magnetic beads.
Chain of UniProt Q9UHP7 (Q9UHP7 72-191 H176C limits assumed): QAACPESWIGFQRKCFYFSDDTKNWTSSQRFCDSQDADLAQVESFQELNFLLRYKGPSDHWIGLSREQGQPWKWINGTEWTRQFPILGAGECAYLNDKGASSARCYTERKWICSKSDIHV

commercial P4500/anti-CLEC2D antibody yielded an efficiency of conjugation (antigen-coated beads stained by the antibody) above 90%.
